T1: Pol1 (budding yeast Pol α catalytic subunit) (S. cerevisiae, UniProt P13382 1-1468)
T1 construct: Pol1, S. cerevisiae; modelled: CTD 1271-1468 and CIP box F140-S149; stood in the assay as a subunit of m1; also called Pol1CTD; Pol1CIP; source: subunit of Pol α-primase from S. cerevisiae strain yAE95, purified as described previously
T1 sequence: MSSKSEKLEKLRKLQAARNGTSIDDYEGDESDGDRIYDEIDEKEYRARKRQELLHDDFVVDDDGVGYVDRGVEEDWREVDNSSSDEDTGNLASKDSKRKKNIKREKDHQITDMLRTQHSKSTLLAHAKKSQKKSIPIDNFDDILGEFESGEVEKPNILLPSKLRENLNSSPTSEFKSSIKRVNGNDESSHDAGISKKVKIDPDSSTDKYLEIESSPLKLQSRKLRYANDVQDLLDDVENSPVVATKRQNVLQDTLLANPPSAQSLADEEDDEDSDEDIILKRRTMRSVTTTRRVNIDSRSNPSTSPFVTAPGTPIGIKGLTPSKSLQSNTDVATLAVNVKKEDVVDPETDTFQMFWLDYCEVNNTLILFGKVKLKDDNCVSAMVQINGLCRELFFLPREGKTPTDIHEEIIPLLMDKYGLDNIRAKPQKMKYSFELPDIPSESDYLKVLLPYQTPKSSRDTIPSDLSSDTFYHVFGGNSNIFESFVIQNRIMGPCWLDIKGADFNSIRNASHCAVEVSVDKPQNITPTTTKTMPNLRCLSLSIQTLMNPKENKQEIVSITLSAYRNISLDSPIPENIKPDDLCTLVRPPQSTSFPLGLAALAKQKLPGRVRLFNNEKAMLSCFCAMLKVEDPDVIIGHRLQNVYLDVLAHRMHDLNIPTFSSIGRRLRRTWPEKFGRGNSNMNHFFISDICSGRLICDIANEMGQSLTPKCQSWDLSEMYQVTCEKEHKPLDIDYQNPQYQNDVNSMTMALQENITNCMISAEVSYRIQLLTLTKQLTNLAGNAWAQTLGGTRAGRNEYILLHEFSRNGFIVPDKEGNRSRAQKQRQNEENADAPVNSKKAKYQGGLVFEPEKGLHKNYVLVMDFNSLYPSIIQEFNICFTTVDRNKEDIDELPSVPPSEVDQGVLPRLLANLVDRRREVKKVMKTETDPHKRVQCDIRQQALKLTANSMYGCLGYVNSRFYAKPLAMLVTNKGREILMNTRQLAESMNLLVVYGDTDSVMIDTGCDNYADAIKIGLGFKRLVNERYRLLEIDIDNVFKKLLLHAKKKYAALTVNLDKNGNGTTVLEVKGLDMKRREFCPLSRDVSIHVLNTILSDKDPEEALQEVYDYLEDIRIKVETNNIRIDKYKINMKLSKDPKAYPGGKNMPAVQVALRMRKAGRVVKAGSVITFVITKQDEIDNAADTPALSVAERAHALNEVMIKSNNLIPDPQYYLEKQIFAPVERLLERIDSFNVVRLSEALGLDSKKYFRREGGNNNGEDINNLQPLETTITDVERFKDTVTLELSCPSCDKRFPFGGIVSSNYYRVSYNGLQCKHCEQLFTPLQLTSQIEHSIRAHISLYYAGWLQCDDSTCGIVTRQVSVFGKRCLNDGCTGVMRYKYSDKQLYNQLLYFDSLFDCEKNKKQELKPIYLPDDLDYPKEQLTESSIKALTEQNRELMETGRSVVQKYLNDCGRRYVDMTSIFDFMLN

T2: Pri2 (budding yeast primase accessory subunit) (S. cerevisiae, UniProt P20457 1-528)
T2 construct: Pri2, S. cerevisiae; modelled residues 1-5 (N terminus), 44-177 and 181-299 (NTD); stood in the assay as a subunit of m1; also called Pri2NTD; Pri2_(Nterm); source: subunit of Pol α-primase from S. cerevisiae strain yAE95, purified as described previously
T2 sequence: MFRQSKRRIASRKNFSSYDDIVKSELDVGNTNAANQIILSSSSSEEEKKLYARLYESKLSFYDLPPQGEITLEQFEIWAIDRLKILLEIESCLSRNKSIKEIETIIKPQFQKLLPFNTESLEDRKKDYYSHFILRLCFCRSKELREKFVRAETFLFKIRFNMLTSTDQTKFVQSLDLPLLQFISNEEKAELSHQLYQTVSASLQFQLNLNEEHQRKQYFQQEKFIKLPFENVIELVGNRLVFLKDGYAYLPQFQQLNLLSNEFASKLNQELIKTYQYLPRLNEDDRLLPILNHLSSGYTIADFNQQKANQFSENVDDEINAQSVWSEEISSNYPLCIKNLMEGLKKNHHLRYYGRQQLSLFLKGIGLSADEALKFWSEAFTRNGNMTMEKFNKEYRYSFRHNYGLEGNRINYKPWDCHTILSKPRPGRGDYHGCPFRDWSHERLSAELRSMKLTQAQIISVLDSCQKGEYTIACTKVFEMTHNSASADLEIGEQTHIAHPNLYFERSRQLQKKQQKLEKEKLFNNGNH


Legend:
Assay in all cases: cryo-EM structure; budding yeast replisome: 150 nM CMG on fork DNA (39 nt 3′ flap, 60 nt 5′ flap) with 1.5-fold molar excess of Tof1-Csm3, Mrc1 and Pol α-primase; 25 mM HEPES-NaOH pH 7.6, 150 mM NaOAc, 0.5 mM TCEP, 500 μM AMP-PNP, 10 mM Mg(OAc)2, on ice; 10-30% glycerol gradient with glutaraldehyde and BS3 cross-linkers
[1] = molecular target: T3, budding yeast CMG (Cdc45-Mcm2-7-GINS) replicative helicase (S. cerevisiae, UniProt Q08032 1-650; P29469 1-868; P24279 1-971; P30665 1-933; P29496 1-775; P53091 …); settings: both partners purified
T3 construct: Cdc45, S. cerevisiae; Mcm2, S. cerevisiae; Mcm3, S. cerevisiae; Mcm4, S. cerevisiae (named only within Mcm2-7); Mcm5, S. cerevisiae; Mcm6, S. cerevisiae (named only within Mcm2-7); Mcm7, S. cerevisiae (named only within Mcm2-7); Psf1, subunit of GINS, S. cerevisiae; Psf2, subunit of GINS, S. cerevisiae; Sld5, subunit of GINS, S. cerevisiae; source: S. cerevisiae strain yJY197, expressed and …

[2] = molecular target: T1, Pol1 (budding yeast Pol α catalytic …); settings: both partners purified
[3] = molecular target: the molecule itself
[4] = molecular target: T2, Pri2 (budding yeast primase accessory …); settings: both partners purified
Mcm3 (budding yeast) = molecular target: T4, Mcm3 (budding yeast) (S. cerevisiae, UniProt P24279 1-971); settings: both partners purified
T4 construct: Mcm3, S. cerevisiae; stood in the assay as a subunit of m2; source: subunit of CMG from S. cerevisiae strain yJY197, purified as described previously
T4 sequence (P24279 whole entry): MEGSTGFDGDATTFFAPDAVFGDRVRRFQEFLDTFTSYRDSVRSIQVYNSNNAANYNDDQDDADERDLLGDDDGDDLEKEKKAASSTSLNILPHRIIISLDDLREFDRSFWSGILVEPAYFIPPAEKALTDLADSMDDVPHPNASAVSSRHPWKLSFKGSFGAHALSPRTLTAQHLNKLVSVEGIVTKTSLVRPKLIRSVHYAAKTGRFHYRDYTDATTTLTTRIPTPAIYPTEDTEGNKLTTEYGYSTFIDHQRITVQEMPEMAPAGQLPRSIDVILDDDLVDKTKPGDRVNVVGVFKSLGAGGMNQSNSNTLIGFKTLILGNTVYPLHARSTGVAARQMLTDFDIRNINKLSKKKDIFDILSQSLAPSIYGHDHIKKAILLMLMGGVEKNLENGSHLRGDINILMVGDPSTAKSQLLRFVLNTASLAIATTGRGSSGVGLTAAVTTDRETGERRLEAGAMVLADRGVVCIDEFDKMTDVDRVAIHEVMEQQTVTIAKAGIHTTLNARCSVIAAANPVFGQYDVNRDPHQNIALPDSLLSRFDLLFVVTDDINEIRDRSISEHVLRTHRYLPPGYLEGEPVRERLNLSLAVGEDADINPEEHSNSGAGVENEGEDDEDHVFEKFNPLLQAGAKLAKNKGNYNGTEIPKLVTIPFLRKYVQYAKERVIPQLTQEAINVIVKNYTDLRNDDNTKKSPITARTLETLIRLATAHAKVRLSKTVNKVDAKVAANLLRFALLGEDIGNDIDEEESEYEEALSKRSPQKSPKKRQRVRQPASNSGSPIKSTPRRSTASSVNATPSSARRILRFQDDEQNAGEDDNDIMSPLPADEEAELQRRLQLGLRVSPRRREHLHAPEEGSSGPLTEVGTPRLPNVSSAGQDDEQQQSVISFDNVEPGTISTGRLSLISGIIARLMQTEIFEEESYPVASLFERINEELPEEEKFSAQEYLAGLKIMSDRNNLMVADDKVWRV

Binder | binding result [1] | binding result [2] | binding result [4] | binding result (Mcm3 (budding yeast)) | stoichiometry N [3]
Ctf4 (budding yeast) (natural protein, UniProt Q01454 1-927, looked up, Ctf4, S. cerevisiae; the results say that Ctf4 was not added to the yeast reconstitution; the general method lists Ctf4/AND-1 among the proteins added; source: endogenous Ctf4 likely co-purifying with CMG from S. cerevisiae) MVSVIDKLVFDFGGKTLVSLAPDNNTLCVANKNGLTKILKTNNPEEEPETLDSSKLVSSIKCYSNSHFLMTTMQGDALRYNIDSSQEELLARFALPLRDCCVIHSGKMAVFGGDDLELILLELDDETHKKHAIKIDEQVSQISYNSQMNILAVSMINGKVQIFSLTSTIPNKVHELNDYIVANSYDDTHRDKILSNMMDDIDKDNDNDLSETADPDENNVADPEFCAANRICTRVAWHPKGLHFALPCADDTVKIFSIKGYSLQKTLSTNLSSTKAHFIDLQFDPLRGTYIAAVDLNNKLTVWNWETSEIHYTREFKRKITNIAWKIQADSKTLDLVLGTWSGSIAIVQNLAESVVSNIPDQSVAESSTKHGLFVDSESDLENLEGNDDINKSDKLFSDITQEANAEDVFTQTHDGPSGLSEKRKYNFEDEEDFIDDDDGAGYISGKKPHNEHSYSRVHKTHSFPISLANTGKFRYMPFSPAGTPFGFTDRRYLTMNEVGYVSTVKNSEQYSITVSFFDVGRFREYHFEDLFGYDLCFLNEKGTLFGQSKTGQIQYRPHDSIHSNWTKIIPLQAGERITSVAATPVRVIVGTSLGYFRSFNQFGVPFAVEKTSPIVALTAQNYRVFSVHYSQFHGLSYSLSELGTSSKRYYKRECPLPMSLPNINSDMKKDANLDYYNFNPMGIKSLFFSSYGDPCIFGSDNTLLLLSKWRSPEESKWLPILDSNMEIWKMSGGKETTDIHVWPLALAYDTLNCILVKGKHIWPEFPLPLPSEMEIRMPVFVKSKLLEENKAILNKKNEIGADTEAEEGEEDKEIQIPVSMAAEEEYLRSKVLSELLTDTLENDGEMYGNENEVLAALNGAYDKALLRLFASACSDQNVEKALSLAHELKQDRALTAAVKISERAELPSLVKKINNIREARYEQQLK | binds | binds | – | – | 3
Pri1 (budding yeast primase catalytic subunit) (natural protein, S. cerevisiae, Pri1, S. cerevisiae; modelled aside from its flexible N and C termini; stood in the assay as a subunit of m1; source: subunit of Pol α-primase from S. cerevisiae strain yAE95, purified as described previously) MTNSVKTNGPSSSDMEYYYKSLYPFKHIFNWLNHSPKPSRDMINREFAMAFRSGAYKRYNSFNSVQDFKAQIEKANPDRFEIGAIYNKPPRERDTLLKSELKALEKELVFDIDMDDYDAFRTCCSGAQVCSKCWKFISLAMKITNTALREDFGYKDFIWVFSGRRGAHCWVSDKRARALTDVQRRNVLDYVNVIRDRNTDKRLALKRPYHPHLARSLEQLKPFFVSIMLEEQNPWEDDQHAIQTLLPALYDKQLIDSLKKYWLDNPRRSSKEKWNDIDQIATSLFKGPKQDSHIIKLRECKEDLVLMTLYPKLDVEVTKQTIHLLKAPFCIHPATGNVCVPIDESFAPEKAPKLIDLQTEMEKNNDVSLTALQPFINQFQAYVSSLLKNELGSVKREREDDDEPASLDF | – | – | binds | – | –

Continued, in another order:

binding result [1] | binding result [2] | binding result [4] | binding result (Mcm3 (budding yeast)) | Binder | stoichiometry N [3]
– | – | binds | – | Psf2 (budding yeast GINS subunit) (natural protein, S. cerevisiae, Psf2, subunit of GINS, S. cerevisiae; stood in the assay as a subunit of m2; source: subunit of CMG from S. cerevisiae strain yJY197, purified as described previously) MSLPAHLQQTFSPEEIQFIVENEPIKIFPRITTRQKIRGDDRGTGNHTRWQLITTDDKALNNMVAMRSTEVVLWIALLLKQQSKCSIVAPQWLTTKELDRKIQYEKTHPDRFSELPWNWLVLARILFNKAKDDFHDPIHELRGKIQDLREIRQIKVLKGLKYLNESHLQLDNLSLLEINELRPFITEIMDKLREIHTASLTAGTENDEEEFNI | –
– | binds | – | binds | Pol12 (budding yeast Pol α accessory subunit) (natural protein, S. cerevisiae, Pol12, S. cerevisiae; modelled residues 1-79, 203-582 and 604-705; stood in the assay as a subunit of m1; also called Pol12NTD; source: subunit of Pol α-primase from S. cerevisiae strain yAE95, purified as described previously) MSGSIDVITHFGPDADKPEIITALENLTKLHALSVEDLYIKWEQFSNQRRQTHTDLTSKNIDEFKQFLQLQMEKRANQISSSSKVNTSTKKPVIKKSLNSSPLFGLSIPKTPTLKKRKLHGPFSLSDSKQTYNVGSEAETNEKGNSSLKLEFTPGMAEDAVGDSAPLSHAKSSDAKTPGSSTFQTPTTNTPTTSRQNVPAGEILDSLNPENIEISSGNPNVGLLSTEEPSYNQVKVEPFYDAKKYKFRTMRQNLQEASDVLDDQIESFTKIIQNHYKLSPNDFADPTIQSQSEIYAVGRIVPDSPTYDKFLNPESLSLETSRMGGVGRRVRLDLSQVNELSFFLGQIVAFKGKNANGDYFTVNSILPLPYPNSPVSTSQELQEFQANLEGSSLKVIVTCGPYFANDNFSLELLQEFIDSINNEVKPHVLIMFGPFIDITHPLIASGKLPNFPQFKTQPKTLDELFLKLFTPILKTISPHIQTVLIPSTKDAISNHAAYPQASLIRKALQLPKRNFKCMANPSSFQINEIYFGCSNVDTFKDLKEVIKGGTTSSRYRLDRVSEHILQQRRYYPIFPGSIRTRIKPKDVSTKKETNDMESKEEKVYEHISGADLDVSYLGLTEFVGGFSPDIMIIPSELQHFARVVQNVVVINPGRFIRATGNRGSYAQITVQCPDLEDGKLTLVEGEEPVYLHNVWKRARVDLIAS | –

From paper PMC10501992, “How Pol α-primase is targeted to replisomes to prime eukaryotic DNA replication” (Molecular Cell, 2023)
